# Test results as given in patent US20020182180A1.
# Tests used:
# [1] = molecular target: V3 loop-deleted (Δ297-329) HIV-1IIIB env glycoprotein expressed by vv-7ΔV3 (HIV-1 IIIB isolate) (UniProt P04578); assay: cell-based or functional assay
# [2] = molecular target: CD4 receptor on CD4+ cells (SupT-1 cells; IL-2-dependent CD4+ T lymphocytes) (UniProt P01730); assay: cell-based or functional assay
substance,measurement,setting,value
"F105, human mAb directed against a discontinuous gp120 epitope overlapping the CD4 binding site (antibody)","ADCC specific lysis (51Cr release, E:T 50:1)",[1],< 4%
V3 loop-deleted (Δ297-329) HIV-1IIIB env glycoprotein expressed by vv-7ΔV3 (from UniProt P04578 33-296; P04578 330-856),"activation-induced apoptosis of CD4+ T lymphocytes (fragmented DNA, PI, 72 hrs)",[2],< 7%
full-length (wild-type) HIV-1IIIB env glycoprotein expressed by vv-WTP-2 (from UniProt P04578 33-856),"apoptotic cells (sub-G1 DNA content, PI staining) in infected SupT-1 cells, 16 hr",[2],20%
same,syncytium formation in infected SupT-1 cells,[2],80 to 90%
